Reference: the supplement of paper PMC11246515
± gives the standard deviation of the averaged measurements.

Test: total protein half-life in vivo (active degradation + dilution); higher = more stable protein
[1] = E. coli NCM3722 delta-clpP delta-lon delta-hslV, growth: N-lim chemostat, doubling time 6 h
[2] = E. coli NCM3722 delta-clpP, growth: N-lim chemostat, doubling time 6 h
[3] = E. coli NCM3722 delta-smpB, growth: N-lim chemostat, doubling time 6 h
[4] = wild type E. coli NCM3722, growth: N-lim chemostat, doubling time 12 h
[5] = wild type E. coli NCM3722, growth: P-lim chemostat, doubling time 6 h
[6] = wild type E. coli NCM3722, growth: P-lim chemostat, doubling time 12 h
[7] = E. coli NCM3722 delta-hslV, growth: N-lim chemostat, doubling time 6 h
[8] = E. coli NCM3722 delta-lon, growth: N-lim chemostat, doubling time 6 h
[9] = wild type E. coli NCM3722, growth: C-lim chemostat, doubling time 3 h
[10] = wild type E. coli NCM3722, growth: C-lim chemostat, doubling time 6 h
[11] = wild type E. coli NCM3722, growth: C-lim chemostat, doubling time 12 h
[12] = wild type E. coli NCM3722, growth: N-lim chemostat, doubling time 6 h

Sequence	total protein half-life in vivo [1] [h]	total protein half-life in vivo [2] [h]	total protein half-life in vivo [3] [h]	total protein half-life in vivo [4] [h]	total protein half-life in vivo [5] [h]	total protein half-life in vivo [6] [h]	total protein half-life in vivo [7] [h]	total protein half-life in vivo [8] [h]	total protein half-life in vivo [9] [h]	total protein half-life in vivo [10] [h]	total protein half-life in vivo [11] [h]	total protein half-life in vivo [12] [h]
MNPVPAQREYFLDSIRAWLMLLGIPFHISLIYSSHTWHVNSAESSLWLTLFNDFIHSFRMQVFFVISGYFSYMLFLRYPLKKWWKVRVERVGIPMLTAIPLLTLPQFIMLQYVKGKAESWPGLSLYDKYNTLAWELISHLWFLLVLVVMTTLCVWIFKRIRNNLENSDKTNKKFSMVKLSVIFLCLGIGYAVIRRTIFIVYPPILSNGMFNFIVMQTLFYLPFFILGALAFIFPHLKALFTTPSRGCTLAAALAFVAYLLNQRYGSGDAWMYETESVITMVLGLWMVNVVFSFGHRLLNFQSARVTYFVNASLFIYLVHHPLTLFFGAYITPHITSNWLGFLCGLIFVVGIAIILYEIHLRIPLLKFLFSGKPVVKRENDKAPAR	> 8	5.18	6.23	9.69	7.05	> 16	–	–	–	–	–	–
MNQFYVHVRLFEDTAEQTKKFEELMLNFLYQKTVKESDDSCCRLIPEGYILKSTMNCQQILDQTFSIANSAGVDANIFVCKFEQSACLLPSASLVGNDFVHYDLTPKPIKLDS	5.47 ± 0.25	–	–	–	–	–	–	–	–	–	–	–
MNQIFMVIFLVLSGFIVGNVWSDRGWQKKWAERDAAALSQEVNAQFAARIIEQGRTIARDEAVKDAQQKSAEISARAAYLSDSVNQLRAEAKKYAIRLDAAKHTADLAAAVRGKTTKTAEGMLTNMLGDIAAEAQLYAEIADERYIAGVTCQQIYESLRDKKHQM	–	–	–	–	–	9.42	–	–	–	–	–	–
MNQNLLVTKRDGSTERINLDKIHRVLDWAAEGLHNVSISQVELRSHIQFYDGIKTSDIHETIIKAAADLISRDAPDYQYLAARLAIFHLRKKAYGQFEPPALYDHVVKMVEMGKYDNHLLEDYTEEEFKQMDTFIDHDRDMTFSYAAVKQLEGKYLVQNRVTGEIYESAQFLYILVAACLFSNYPRETRLQYVKRFYDAVSTFKISLPTPIMSGVRTPTRQFSSCVLIECGDSLDSINATSSAIVKYVSQRAGIGINAGRIRALGSPIRGGEAFHTGCIPFYKHFQTAVKSCSQGGVRGGAATLFYPMWHLEVESLLVLKNNRGVEGNRVRHMDYGVQINKLMYTRLLKGEDITLFSPSDVPGLYDAFFADQEEFERLYTKYEKDDSIRKQRVKAVELFSLMMQERASTGRIYIQNVDHCNTHSPFDPAIAPVRQSNLCLEIALPTKPLNDVNDENGEIALCTLSAFNLGAINNLDELEELAILAVRALDALLDYQDYPIPAAKRGAMGRRTLGIGVINFAYYLAKHGKRYSDGSANNLTHKTFEAIQYYLLKASNELAKEQGACPWFNETTYAKGILPIDTYKKDLDTIANEPLHYDWEALRESIKTHGLRNSTLSALMPSETSSQISNATNGIEPPRGYVSIKASKDGILRQVVPDYEHLHDAYELLWEMPGNDGYLQLVGIMQKFIDQSISANTNYDPSRFPSGKVPMQQLLKDLLTAYKFGVKTLYYQNTRDGAEDAQDDLVPSIQDDGCESGACKI	4.05 ± 0.63	3.93 ± 0.074	3.67 ± 0.52	5.89 ± 0.22	5.93 ± 0.08	11.1 ± 0.48	4.03 ± 0.099	4.24 ± 0.14	3.07 ± 0.15	4.91 ± 0.43	9.24 ± 1.7	3.85 ± 0.23
MNQPLLSVNNLTHLYAPGKGFSDVSFDLWPGEVLGIVGESGSGKTTLLKSISARLTPQQGEIHYENRSLYAMSEADRRRLLRTEWGVVHQHPLDGLRRQVSAGGNIGERLMATGARHYGDIRATAQKWLEEVEIPANRIDDLPTTFSGGMQQRLQIARNLVTHPKLVFMDEPTGGLDVSVQARLLDLLRGLVVELNLAVVIVTHDLGVARLLADRLLVMKQGQVVESGLTDRVLDDPHHPYTQLLVSSVLQN	–	–	–	–	0.314	1.09 ± 0.26	–	–	–	4.8	–	–
MNQQDIEQVVKAVLLKMQSSDTPSAAVHEMGVFASLDDAVAAAKVAQQGLKSVAMRQLAIAAIREAGEKHARDLAELAVSETGMGRVEDKFAKNVAQARGTPGVECLSPQVLTGDNGLTLIENAPWGVVASVTPSTNPAATVINNAISLIAAGNSVIFAPHPAAKKVSQRAITLLNQAIVAAGGPENLLVTVANPDIETAQRLFKFPGIGLLVVTGGEAVVEAARKHTNKRLIAAGAGNPPVVVDETADLARAAQSIVKGASFDNNIICADEKVLIVVDSVADELMRLMEGQHAVKLTAEQAQQLQPVLLKNIDERGKGTVSRDWVGRDAGKIAAAIGLKVPQETRLLFVETTAEHPFAVTELMMPVLPVVRVANVADAIALAVKLEGGCHHTAAMHSRNIENMNQMANAIDTSIFVKNGPCIAGLGLGGEGWTTMTITTPTGEGVTSARTFVRLRRCVLVDAFRIV	5.64 ± 1.3	–	–	–	–	–	–	–	–	–	–	–
MNRFIMANSQQCLGCHACEIACVMAHNDEQHVLSQHHFHPRITVIKHQQQRSAVTCHHCEDAPCARSCPNGAISHVDDSIQVNQQKCIGCKSCVVACPFGTMQIVLTPVAAGKVKATAHKCDLCAGRENGPACVENCPADALQLVTDVALSGMAKSRRLRTARQEHQPWHASTAAQEMPVMSKVEQMQATPARGEPDKLAIEARKTGFDEIYLPFRADQAQREASRCLKCGEHSVCEWTCPLHNHIPQWIELVKAGNIDAAVELSHQTNTLPEITGRVCPQDRLCEGACTIRDEHGAVTIGNIERYISDQALAKGWRPDLSHVTKVDKRVAIIGAGPAGLACADVLTRNGVGVTVYDRHPEIGGLLTFGIPSFKLDKSLLARRREIFSAMGIHFELNCEVGKDVSLDSLLEQYDAVFVGVGTYRSMKAGLPNEDAPGVYDALPFLIANTKQVMGLEELPEEPFINTAGLNVVVLGGGDTAMDCVRTALRHGASNVTCAYRRDEANMPGSKKEVKNAREEGANFEFNVQPVALELNEQGHVCGIRFLRTRLGEPDAQGRRRPVPVEGSEFVMPADAVIMAFGFNPHGMPWLESHGVTVDKWGRIIADVESQYRYQTTNPKIFAGGDAVRGADLVVTAMAEGRHAAQGIIDWLGVKSVKSH	5.28	–	–	–	–	–	–	–	–	–	1.34	–
MNRIEHYHDWLRDAHAMEKQAESMLESMASRIDNYPELRARIEQHLSETKNQIVQLETILDRNDISRSVIKDSMSKMAALGQSIGGIFPSDEIVKGSISGYVFEQFEIACYTSLLAAAKNAGDTASIPTIEAILNEEKQMADWLIQNIPQTTEKFLIRSETDGVEAKK	4.867 ± 0.043	4.24 ± 0.64	3.94 ± 0.3	6.67 ± 0.1	5.2 ± 0.7	11.1 ± 0.76	6.68 ± 0.67	4.5 ± 0.39	3.17 ± 0.17	5.22 ± 0.1	10.5 ± 1.5	4.14 ± 0.32
MNRIYACPVADVPEGEALRIDTSPVIALFNVGGEFYAINDRCSHGNASMSEGYLEDDATVECPLHAASFCLKTGKALCLPATDPLTTYPVHVEGGDIFIDLPEAQP [P0ABW0]	–	–	–	–	–	2.53	–	–	–	–	–	–
MNRLPSSASALACSAHALNLIEKRTLDHEEMKALNREVIEYFKEHVNPGFLEYRKSVTAGGDYGAVEWQAGSLNTLVDTQGQEFIDCLGGFGIFNVGHRNPVVVSAVQNQLAKQPLHSQELLDPLRAMLAKTLAALTPGKLKYSFFCNSGTESVEAALKLAKAYQSPRGKFTFIATSGAFHGKSLGALSATAKSTFRKPFMPLLPGFRHVPFGNIEAMRTALNECKKTGDDVAAVILEPIQGEGGVILPPPGYLTAVRKLCDEFGALMILDEVQTGMGRTGKMFACEHENVQPDILCLAKALGGGVMPIGATIATEEVFSVLFDNPFLHTTTFGGNPLACAAALATINVLLEQNLPAQAEQKGDMLLDGFRQLAREYPDLVQEARGKGMLMAIEFVDNEIGYNFASEMFRQRVLVAGTLNNAKTIRIEPPLTLTIEQCELVIKAARKALAAMRVSVEEA	4.74 ± 0.26	3.09 ± 0.83	0.289 ± 0.0059	0.594 ± 0.085	0.667 ± 0.37	1.3 ± 0.8	0.385 ± 0.062	0.49 ± 0.12	0.378 ± 0.04	0.631 ± 0.033	1.06 ± 0.45	0.848 ± 0.61
MNRTDELRTARIESLVTPAELALRYPVTPGVATHVTDSRRRIEKILNGEDKRLLVIIGPCSIHDLTAAMEYATRLQSLRNQYQSRLEIVMRTYFEKPRTVVGWKGLISDPDLNGSYRVNHGLELARKLLLQVNELGVPTATEFLDMVTGQFIADLISWGAIGARTTESQIHREMASALSCPVGFKNGTDGNTRIAVDAIRAARASHMFLSPDKNGQMTIYQTSGNPYGHIIMRGGKKPNYHADDIAAACDTLHEFDLPEHLVVDFSHGNCQKQHRRQLEVCEDICQQIRNGSTAIAGIMAESFLREGTQKIVGSQPLTYGQSITDPCLGWEDTERLVEKLASAVDTRF	5.25 ± 0.74	–	4.62 ± 0.51	7.35 ± 0.6	6.03 ± 0.34	11.8 ± 0.39	4.47 ± 0.041	4.88 ± 0.15	3.089 ± 0.021	6.53 ± 1.7	10.3 ± 0.59	5.28 ± 0.75
MNSFNEGVVSPLLSFWRRSLMLAGALLLTACSHNSSLPPFTASGFAEDQGAVRIWRKDSGDNVHLLAVFSPWRSGDTTTREYRWQGDNLTLININVYSKPPVNIRARFDDRGDLSFMQRESDGEKQQLSNDQIDLYRYRADQIRQISDALRQGRVVLRQGRWHAMEQTVTTCEGQTIKPDLDSQAIAHIERRQSRSSVDVSVAWLEAPEGSQLLLVANSDFCRWQPNEKTF	6.47 ± 1.2	7.12 ± 0.33	6.11 ± 0.48	13.2 ± 1.6	6.31 ± 0.4	14.1 ± 1.4	6.4	6.98	3.17 ± 0.14	–	11.2	6.3 ± 0.074
MNSHNITNESLALALMLVVVAILISHKEKLALEKDILWSVGRAIIQLIIVGYVLKYIFSVDDASLTLLMVLFICFNAAWNAQKRSKYIAKAFISSFIAITVGAGITLAVLILSGSIEFIPMQVIPIAGMIAGNAMVAVGLCYNNLGQRVISEQQQIQEKLSLGATPKQASAILIRDSIRAALIPTVDSAKTVGLVSLPGMMSGLIFAGIDPVKAIKYQIMVTFMLLSTASLSTIIACYLTYRKFYNSRHQLVVTQLKKK	–	6.44 ± 0.17	5.86 ± 0.42	8.27 ± 3	6.28 ± 0.1	–	6 ± 0.27	5.893 ± 0.034	3.19 ± 0.54	5.5591 ± 0.0054	9.93 ± 4.5	5.87 ± 0.81
MNSIFTEENLLAFTTAARFGSFSKAAEELGLTTSAISYTIKRMETGLDVVLFTRSTRSIELTESGRYFFRKATDLLNDFYAIKRRIDTISQGIEARVRICINQLLYTPKHTARLLQVLKKQFPTCQITVTTEVYNGVWDAIINNQANIAIGAPDTLLDGGGIDYTEIGAIRWAFAIAPDHPLAFVPEPIAESQLRLYPNIMVEDTAHTINKKVGWLLHGQESILVPDFNTKCQCQILGEGIGFLPDYMVREAMTQSLLVTRQIHNPRQDSRMLLATQHSATGQVTQWIKKQFAPNGILTGIYQDLLHREN	5.9	–	–	–	–	–	–	–	–	–	–	–
MNSLTTHYRRSQLIALPVPGGKAKVEYCYAVNVPGDREIVTHSFAEWAVGDFNRQKETVLCDKLTAGSKITTECPSESFVGSRKHNGLSTSAKVMSMNASARSNSFVVNSGK	1.84	–	–	–	–	–	–	–	–	–	–	–
MNTALAQQIANEGGVEAWMIAQQHKSLLRFLTCGSVDDGKSTLIGRLLHDTRQIYEDQLSSLHNDSKRHGTQGEKLDLALLVDGLQAEREQGITIDVAYRYFSTEKRKFIIADTPGHEQYTRNMATGASTCELAILLIDARKGVLDQTRRHSFISTLLGIKHLVVAINKMDLVDYSEETFTRIREDYLTFAGQLPGNLDIRFVPLSALEGDNVASQSESMPWYSGPTLLEVLETVEIQRVVDAQPMRFPVQYVNRPNLDFRGYAGTLASGRVEVGQRVKVLPSGVESNVARIVTFDGDREEAFAGEAITLVLTDEIDISRGDLLLAADEALPAVQSASVDVVWMAEQPLSPGQSYDIKIAGKKTRARVDGIRYQVDINNLTQREVENLPLNGIGLVDLTFDEPLVLDRYQQNPVTGGLIFIDRLSNVTVGAGMVHEPVSQATAAPSEFSAFELELNALVRRHFPHWGARDLLGDK	4.99 ± 0.27	4.67 ± 0.42	1.13 ± 0.045	1.39 ± 0.11	1.67 ± 0.47	2.32 ± 0.57	1.18 ± 0.2	1.23 ± 0.018	1.58 ± 0.051	1.61 ± 0.17	2.08 ± 0.23	1.29 ± 0.057
